Key:
[1] = Radiochemical stability by radio-HPLC after labeling, incubation in PBS buffer; settings: room temperature
[2] = Biodistribution in non-tumor bearing CD-1 mice at 4 h post-injection (FIGS. 12-13); settings: female, CD-1, mouse, in vivo, total radioactivity
Method: FIG. 12 is a bar graph 1200 showing the biodistribution (% ID/g)(y-axis) for various organs (x-axis). The biodistribution of ^203Pb-TCMCTATE and ^203Pb-DOTAMTATE is shown for non-tumor bearing mice done at 4 h post-injection. The biodistribution studies of ^203Pb-TCMCTATE and ^203Pb-DOTAMTATE are completed in non-tumor bearing mice (CD-1 mice, Female, 20 g wt. 4-5 weeks) at 4 h post-injection of the cancer targeting compositions.
In comparison, FIG. 13 is a graph 1300 (similar to the graph of FIG. 12), except that the biodistribution study is of ^203Pb-acetate (a lead radioisotope without a chelator or targeting moiety) in non-tumor bearing mice done at 4 h post-injection. A higher accumulation of isotope is observed in blood, kidney, liver and lung compared to the chelated radioisotopes of FIG. 12. The biodistribution studies of the ^203Pb-acetate indicate retention of the isotope in bone marrow, blood and liver after 4 h post-injection.

[3] = Side by side biodistribution of ^203Pb- and ^212Pb-DOTAMTATE in CD-1 mice (FIG. 32); format: in vivo; settings: female CD-1 mice, 10 μCi iv, 4 hr and 24 hours
Method: Female CD-1 mice (˜20 g) are injected with a single dose of ^203Pb-DOTAMTATE or ^212Pb-DOTAMTATE. Specifically, 10 μCi of ^203Pb-DOTAMTATE or ^212Pb-DOTAMTATE is diluted in saline and 100 μl is administered to the mice via intravenous injection. The animals are sacrificed at predetermined time points of 4 hr and 24 hours post drug injection. Tissues are collected from each animal and evaluated for amount of radioactive material in each organ by auto gamma counter. Specifically, organs are harvested, weighed and transferred to 12×55 mm polypropylene tubes. The tubes are placed in a calibrated Wizard2 γ-counter (PerkinElmer, Shelton, Conn.) and counted for three minutes (204-274 keV). A standard consisting of one-twentieth of the injection volume is counted with each time point. The background is automatically subtracted from the counts. The standard is also used for decay correction. % ID/g is calculated for each organ collected, wherein “% ID” means percent injection dosage.

[4] = Dosimetry and bio-distribution of ^203Pb-DOTAMTATE in patients with somatostatin expressing neuroendocrine tumors (SPECT-CT); format: in vivo, human; settings: human, in vivo
Method: Total of 6 patients are enrolled in the first-in-human open-label, single-dose, dosimetry and bio-distribution of ^203Pb-DOTAMTATE.
All patients (1 female and 5 male) receive an average dose of 4.94 (4.66-5.26) mCi of ^203Pb-DOTAM-TATE and undergo 1 hour, 4 hour, 24 hour and 48 hour post injection SPECT-CT scans. Ethnicity of all 6 patients is Caucasian.
Pharmacokinetic data from ^203Pb-DOTAMTATE imaging are used to calculate the absorbed dose from ^203Pb-DOTAMTATE imaging. The data is then extrapolated to calculate the expected tissue absorbed doses following the administration of ^212Pb-DOTAMTATE for future Targeted Alpha particle Therapy (TAT).

[5] = ^203Pb-DOTAMTATE biodistribution in athymic nude mice (FIG. 16); format: in vivo; settings: female athymic nude mice, 10 μCi iv, 4, 24 and 48 hours
Method: FIG. 16 is a bar graph 1600 showing the biodistribution results (% ID/g) of ^203Pb-DOTAMTATE in various organs (y-axis). The biodistribution data are acquired at 4 h, 24 h, and 48 h post-injection. […] There is also accumulation of the composition observed in kidneys and bladder due elimination of the composition through renal clearance. As may be seen from these figures, the composition is washed out from all measured organs over time in non-tumor bearing mice.
Female athymic nude mice (˜20 g) are injected with a single dose of ^203Pb-DOTAMTATE. Specifically, 10 μCi of ^203Pb-DOTAMTATE is diluted in PBS and 100 μl is administered to the mice via intravenous injection. The animals are sacrificed at predetermined time points of 4 hr, 24 hours and 48 hours post drug injection. Tissues are collected from each animal and evaluated for amount of radioactive material in each organ by auto gamma counter. Specifically, organs are harvested, weighed and transferred to polypropylene tubes. The tubes are placed in a calibrated Wizard2 γ-counter (PerkinElmer, Shelton, Conn.) and counted for three minutes (204-274 keV). A standard consisting of one-twentieth of the injection volume is counted with each time point. The background is automatically subtracted from the counts. The standard is also used for decay correction. % ID/g is calculated for each organ collected.

in vivo = assay: in vivo; set-up: species or system mice
Method: ^212Pb-DOTATOC is prepared based on activity needed at time of injection. 4.1 ng of peptide per 10 μCi of ^212Pb into a tube is added. The mixture is incubated for 10 minutes at 50° C. with shaking. ITLC (Instant thin layer chromatography) is used to verify that chelation is >95%. 100 μl of ^212Pb-DOTATOC is intravenously injected into the tail of each mouse. An auto gamma counter is used to determine the counts of each organ and control tube.

[6] = female, CD-1, mouse, iv, 10 uCi, total radioactivity

C[C@@H](O)[C@H](NC(=O)[C@@H]1CSSC[C@H](NC(=O)[C@@H](Cc2ccccc2)NC(=S)Nc2ccc(C[C@H]3CN(CC(N)=O)CCN(CC(N)=O)CCN(CC(N)=O)CCN3CC(N)=O)cc2)C(=O)N[C@@H](Cc2ccc(O)cc2)C(=O)N[C@H](Cc2c[nH]c3ccccc23)C(=O)N[C@@H](CCCCN)C(=O)N[C@@H]([C@@H](C)O)C(=O)N1)C(=O)O [^203Pb-TCMCTATE, ((4R,7S,10S,13R,16S,19R)-13-((1H-indol-3-yl)methyl)-10-(4-aminobutyl)-16-(4-hydroxybenzyl)-7-((R)-1-hydroxyethyl)-6,9,12,15,18-pentaoxo-19-((R)-3-phenyl-2-(3-(4-(((S)-1,4,7,10-tetrakis(2-amino-2-oxoethyl)-1,4,7,10-tetraazacyclododecan-2-yl)methyl)phenyl)thioureido)propanamido)-1,2-dithia-5,8,11,14,17-pentaazacycloicosane-4-carbonyl)-L-threonine chelated to M, metal not drawn]
radiochemical stability (radio-HPLC) ([1]; up to 18 h post-labeling): ≥ 96% | tissue uptake at 4 h ([2]; non-tumor bearing CD-1 mice, 4 h post-injection, read-out: kidney retention): 23.5 ± 1.54 %ID/g | tissue uptake at 4 h ([2]; non-tumor bearing CD-1 mice, 4 h post-injection, read-out: retention in other organs (than kidneys)): < 2 %ID/g

C[C@@H](O)[C@H](NC(=O)[C@@H]1CSSC[C@H](NC(=O)[C@@H](Cc2ccccc2)NC(=O)CN2CCN(CC(N)=O)CCN(CC(N)=O)CCN(CC(N)=O)CC2)C(=O)N[C@@H](Cc2ccc(O)cc2)C(=O)N[C@H](Cc2c[nH]c3ccccc23)C(=O)N[C@@H](CCCCN)C(=O)N[C@@H]([C@@H](C)O)C(=O)N1)C(=O)O [^203Pb-DOTAMTATE, ((4R,7S,10S,13R,16S,19R)-13-((1H-indol-3-yl)methyl)-10-(4-aminobutyl)-16-(4-hydroxybenzyl)-7-((R)-1-hydroxyethyl)-6,9,12,15,18-pentaoxo-19-((R)-3-phenyl-2-(2-(4,7,10-tris(2-amino-2-oxoethyl)-1,4,7,10-tetraazacyclododecan-1-yl)acetamido)propanamido)-1,2-dithia-5,8,11,14,17-pentaazacycloicosane-4-carbonyl)-L-threonine chelated to M, metal not drawn]
organ uptake compared with ^212Pb-DOTAMTATE in all critical organs [3]: not significantly different | absorbed dose, kidneys, average, for ^212Pb [4]: 19 mGy/MBq | absorbed dose, liver, average, for ^212Pb [4]: 17 mGy/MBq | dose to bone marrow [4]: 1.6 Gy | dose to heart wall [4]: 3.7 Gy | dose to lungs [4]: 2.5 Gy | dose to osteogenic cells [4]: 0.5 Gy | dose to spleen [4]: 31 Gy | radiochemical stability (radiochemical yield, no free ^203Pb peak in radio-HPLC) ([1]; up to at least 24 h post-labeling): ≥ 98% | tissue uptake at 4 h ([2]; kidney retention): 9.79 ± 2.9 %ID/g | tissue uptake at 4 h ([2]; retention in other organs (than kidneys)): < 2 %ID/g | organ uptake [5]: high initial uptake of the drug in the pancreas and kidneys that continues to decrease over time

C[C@@H](O)[C@@H]1NC(=O)[C@H](CCCCN)NC(=O)[C@@H](Cc2c[nH]c3ccccc23)NC(=O)[C@H](Cc2ccc(O)cc2)NC(=O)[C@@H](NC(=O)[C@@H](Cc2ccccc2)NC(=O)CN2CCN(CC(=O)O)CCN(CC(=O)O)CCN(CC(=O)O)CC2)CSSC[C@@H](C(=O)N[C@H](CO)[C@@H](C)O)NC1=O [^212Pb-DOTATOC, metal not drawn]
tissue uptake at 0.5 h (in vivo; [6]): 19 %ID/g | tissue uptake at 4 h (in vivo; [6]): 22 %ID/g | drug in all other organs (in vivo; mouse): nearly undetectable

Source: patent publication US11541133B2, “Treatment of cancer cells overexpressing somatostatin receptors using ocreotide derivatives chelated to radioisotopes” (RADIOMEDIX INC., priority 2017, dated 2023)
